The values that follow come from article PMC3882317 (Cell reports, 2013).

In one assay the target is T1, Flag-tagged Larp7 (UniProt Q4G0J3 1-582).
T1 sequence (looked up): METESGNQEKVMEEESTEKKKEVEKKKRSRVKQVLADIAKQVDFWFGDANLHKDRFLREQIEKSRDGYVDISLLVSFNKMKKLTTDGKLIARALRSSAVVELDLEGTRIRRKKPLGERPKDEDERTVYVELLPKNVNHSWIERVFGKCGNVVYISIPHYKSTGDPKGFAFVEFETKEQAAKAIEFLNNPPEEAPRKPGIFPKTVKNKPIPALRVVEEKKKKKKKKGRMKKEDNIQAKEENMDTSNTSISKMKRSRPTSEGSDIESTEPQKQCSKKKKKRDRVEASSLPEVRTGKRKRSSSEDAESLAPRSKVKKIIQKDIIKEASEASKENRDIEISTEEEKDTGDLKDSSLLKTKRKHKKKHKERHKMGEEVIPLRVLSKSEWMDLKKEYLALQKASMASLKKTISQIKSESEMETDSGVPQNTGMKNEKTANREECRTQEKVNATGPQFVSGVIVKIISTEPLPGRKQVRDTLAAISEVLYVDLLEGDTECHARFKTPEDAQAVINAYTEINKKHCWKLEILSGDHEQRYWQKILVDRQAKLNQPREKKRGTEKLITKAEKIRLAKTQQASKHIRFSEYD
The assay is described as follows: pull-down.

For another assay, the target named is T2, Flag-tagged MePCE (UniProt Q7L2J0 1-689).
T2 sequence (looked up): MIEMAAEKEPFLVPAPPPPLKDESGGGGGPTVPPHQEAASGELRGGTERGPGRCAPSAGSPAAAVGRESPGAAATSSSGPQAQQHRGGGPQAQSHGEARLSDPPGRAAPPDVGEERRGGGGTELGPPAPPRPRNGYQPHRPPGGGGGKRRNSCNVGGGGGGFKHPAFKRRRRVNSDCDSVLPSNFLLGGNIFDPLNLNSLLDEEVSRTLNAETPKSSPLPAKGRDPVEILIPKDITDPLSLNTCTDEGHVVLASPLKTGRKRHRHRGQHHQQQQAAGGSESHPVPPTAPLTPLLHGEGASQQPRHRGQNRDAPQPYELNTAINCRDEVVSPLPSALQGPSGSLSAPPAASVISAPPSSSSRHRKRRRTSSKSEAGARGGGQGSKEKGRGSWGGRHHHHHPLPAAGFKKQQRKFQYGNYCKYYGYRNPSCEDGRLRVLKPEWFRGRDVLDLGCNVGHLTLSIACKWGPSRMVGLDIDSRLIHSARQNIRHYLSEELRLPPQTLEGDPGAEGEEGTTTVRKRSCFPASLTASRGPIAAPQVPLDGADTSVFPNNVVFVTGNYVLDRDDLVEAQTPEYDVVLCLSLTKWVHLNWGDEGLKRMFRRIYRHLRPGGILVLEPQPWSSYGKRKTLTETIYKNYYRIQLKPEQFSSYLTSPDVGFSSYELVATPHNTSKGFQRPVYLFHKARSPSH
Nature of the assay: pull-down.

B1: Strep-tagged PPM1G (enzyme, UniProt O15355 1-546, looked up)
chain: MGAYLSQPNTVKCSGDGVGAPRLPLPYGFSAMQGWRVSMEDAHNCIPELDSETAMFSVYDGHGGEEVALYCAKYLPDIIKDQKAYKEGKLQKALEDAFLAIDAKLTTEEVIKELAQIAGRPTEDEDEKEKVADEDDVDNEEAALLHEEATMTIEELLTRYGQNCHKGPPHSKSGGGTGEEPGSQGLNGEAGPEDSTRETPSQENGPTAKAYTGFSSNSERGTEAGQVGEPGIPTGEAGPSCSSASDKLPRVAKSKFFEDSEDESDEAEEEEEDSEECSEEEDGYSSEEAENEEDEDDTEEAEEDDEEEEEEMMVPGMEGKEEPGSDSGTTAVVALIRGKQLIVANAGDSRCVVSEAGKALDMSYDHKPEDEVELARIKNAGGKVTMDGRVNGGLNLSRAIGDHFYKRNKNLPPEEQMISALPDIKVLTLTDDHEFMVIACDGIWNVMSSQEVVDFIQSKISQRDENGELRLLSSIVEELLDQCLAPDTSGDGTGCDNMTCIIICFKPRNTAELQPESGKRKLEEVLSTEGAEENGNSDKKKKAKRD
For the molecule B1, the binding result with Flag-tagged Larp7 and with Flag-tagged MePCE was “binds” each time.
